According to US20260193335A1 (ZOETIS SERVICES, published 2026):
Changes are numbered by the printed parent chain. Numbers in names are those of the source.

B1: mAb5 (felinized anti-IL31 antibody) S428L, feline IgG1a (antibody, part only; not given: variable domains of mAb5, not shown: another chain or arm of the molecule; small tags and cut ends)
constant: ASTTAPSVFPLAPSCGTTSGATVALACLVLGYFPEPVTVSWNSGALTSGVHTFPAVLQASGLYSLSSMVTVPSSRWLSDTFTCNVAHPPSNTKVDKTVRKTDHPPGPKPCDCPKCPPPEMLGGPSIFIFPPKPKDTLSISRTPEVTCLVVDLGPDDSDVQITWFVDNTQVYTAKTSPREEQFNSTYRVVSVLPILHQDWLKGKEFKCKVNSKSLPSPIERTISKAKGQPHEPQVYVLPPAQEELSRNKVSVTCLIKSFHPPDIAVEWEITGQPEPENNYRTTPPQLDSDGTYFVYSKLSVDRSHWQRGNTYTCSVLHEALHSHHTQKSLTQSPGK
B2: mAb5 (felinized anti-IL31 antibody) S428M and S434P, feline IgG1a (antibody, part only; not given: variable domains of mAb5, not shown: another chain or arm of the molecule; small tags and cut ends)
constant: B1 constant with L316M, S322P
B3: mAb5 (felinized anti-IL31 antibody) S428M and S434L, feline IgG1a (antibody, part only; not given: variable domains of mAb5, not shown: another chain or arm of the molecule; small tags and cut ends)
constant: B1 constant with L316M, S322L
B4: mAb4 (felinized anti-IL31 antibody ZTS-5864) S428E, feline IgG1a (antibody, part only; not given: light constant region, not shown: another chain or arm of the molecule)
heavy: DVQLVESGGDLVKPGGSLRLTCVASGFTFSDYAMSWVRQAPGKGLQWVAGIDSVGSGTSYADSVKGRFTISRDNAKNTLYLQMNSLKTEDTATYYCASGFPGSFEHWGQGTLVTVSSASTTAPSVFPLAPSCGTTSGATVALACLVLGYFPEPVTVSWNSGALTSGVHTFPAVLQASGLYSLSSMVTVPSSRWLSDTFTCNVAHPPSNTKVDKTVRKTDHPPGPKPCDCPKCPPPEMLGGPSIFIFPPKPKDTLSISRTPEVTCLVVDLGPDDSDVQITWFVDNTQVYTAKTSPREEQFNSTYRVVSVLPILHQDWLKGKEFKCKVNSKSLPSPIERTISKAKGQPHEPQVYVLPPAQEELSRNKVSVTCLIKSFHPPDIAVEWEITGQPEPENNYRTTPPQLDSDGTYFVYSKLSVDRSHWQRGNTYTCSVEHEALHSHHTQKSLTQSPGK
VL: QSVLTQPSSVSGTLGQRITISCTGSSSNIGSGYVGWYQQVPGMGPKTVIYYNSDRPSGVPDRFSGSKSGSSGTLTITGLQAEDEADYYCSVYDRTFNAVFGGGT
B5: mAb4 (felinized anti-IL31 antibody ZTS-5864) S428H, feline IgG1a (antibody, part only; not given: light constant region, not shown: another chain or arm of the molecule)
heavy: B4 heavy with E433H
VL: B4 VL
B6: mAb4 (felinized anti-IL31 antibody ZTS-5864) S428N, feline IgG1a (antibody, part only; not given: light constant region, not shown: another chain or arm of the molecule)
heavy: B4 heavy with E433N
VL: B4 VL
B7: mAb4 (felinized anti-IL31 antibody ZTS-5864) S428M, feline IgG1a (antibody, part only; not given: light constant region, not shown: another chain or arm of the molecule)
heavy: B4 heavy with E433M
VL: B4 VL
B8: mAb4 (felinized anti-IL31 antibody ZTS-5864) S428K, feline IgG1a (antibody, part only; not given: light constant region, not shown: another chain or arm of the molecule)
heavy: B4 heavy with E433K
VL: B4 VL
B9: mAb4 (felinized anti-IL31 antibody ZTS-5864) S428I, feline IgG1a (antibody, part only; not given: light constant region, not shown: another chain or arm of the molecule)
heavy: B4 heavy with E433I
VL: B4 VL
B10: mAb4 (felinized anti-IL31 antibody ZTS-5864) S428F, feline IgG1a (antibody, part only; not given: light constant region, not shown: another chain or arm of the molecule)
heavy: B4 heavy with E433F
VL: B4 VL
B11: mAb6 anti-TGFβ antibody ZTS-120-1, wildtype (antibody)
heavy: QVQLVQSGAEVKKPGSSVKVSCKASGYTFSSNVISWVRQAPGQGLEWMGGVIPIVDIANYAQRFKGRVTITADESTSTTYMELSSLRSEDTAVYYCASTLGLVLDAMDYWGQGTLVTVSSASTTAPSVFPLAPSCGTTSGATVALACLVLGYFPEPVTVSWNSGALTSGVHTFPAVLQASGLYSLSSMVTVPSSRWLSDTFTCNVAHPPSNTKVDKTVRKTDHPPGPKPCDCPKCPPPEMLGGPSIFIFPPKPKDTLSISRTPEVTCLVVDLGPDDSDVQITWFVDNTQVYTAKTSPREEQFNSTYRVVSVLPILHQDWLKGKEFKCKVNSKSLPSPIERTISKAKGQPHEPQVYVLPPAQEELSRNKVSVTCLIKSFHPPDIAVEWEITGQPEPENNYRTTPPQLDSDGTYFVYSKLSVDRSHWQRGNTYTCSVSHEALHSHHTQKSLTQSPGK
light: ETVLTQSPGTLSLSPGERATLSCRASQSLGSSYLAWYQQKPGQAPRLLIYGASSRAPGIPDRFSGSGSGTDFTLTISRLEPEDFAVYYCQQYADSPITFGQGTKLEIK
notes: also called mAb6 ID No. 12
B12: mAb6 anti-TGFβ antibody ZTS-120-2, wildtype (antibody)
heavy: QVLLVQSGADVRKPGASVKIFCKASGYTFTSNVISWVRQTPAQGFEWMGGVIPIVDIANYAQRFKGRLVLTADTSTNTAYMELRSLKSADTAVYYCASTLGLVLDAMDYWGQGSLVTVSSASTTAPSVFPLAPSCGTTSGATVALACLVLGYFPEPVTVSWNSGALTSGVHTFPAVLQASGLYSLSSMVTVPSSRWLSDTFTCNVAHPPSNTKVDKTVRKTDHPPGPKPCDCPKCPPPEMLGGPSIFIFPPKPKDTLSISRTPEVTCLVVDLGPDDSDVQITWFVDNTQVYTAKTSPREEQFNSTYRVVSVLPILHQDWLKGKEFKCKVNSKSLPSPIERTISKAKGQPHEPQVYVLPPAQEELSRNKVSVTCLIKSFHPPDIAVEWEITGQPEPENNYRTTPPQLDSDGTYFVYSKLSVDRSHWQRGNTYTCSVSHEALHSHHTQKSLTQSPGK
light: EIQMTQSPSSLSASPGDRVTITCRASQSLGSSYLAWYQQKPGKVPKLLIYGASSRAPGVPSRFSGSGSGTDFTLTISSLEPEDAATYYCQQYADSPITFGQGTKLEIK
notes: also called mAb6 ID No. 14
B13: mAb6 anti-TGFβ antibody ZTS-310, wildtype (antibody, IgG1a)
heavy: QVLLVQSGAEVRRPGASVKIFCKASGYSFTSSWMNWLRQAPAQGFEWMGQIYPGDGDTNYNGKFKGRLTLTADTSTDTAYMELSSLRSADTAVYYCARHYDGSTDYWGHGTIVTVSSASTTAPSVFPLAPSCGTTSGATVALACLVLGYFPEPVTVSWNSGALTSGVHTFPAVLQASGLYSLSSMVTVPSSRWLSDTFTCNVAHPPSNTKVDKTVRKTDHPPGPKPCDCPKCPPPEMLGGPSIFIFPPKPKDTLSISRTPEVTCLVVDLGPDDSDVQITWFVDNTQVYTAKTSPREEQFNSTYRVVSVLPILHQDWLKGKEFKCKVNSKSLPSPIERTISKAKGQPHEPQVYVLPPAQEELSRNKVSVTCLIKSFHPPDIAVEWEITGQPEPENNYRTTPPQLDSDGTYFVYSKLSVDRSHWQRGNTYTCSVSHEALHSHHTQKSLTQSPGK
light: AITMTQSPGSLAGSPGQQVTMNCRASENIYSNLAWYQQKPGQHPKLLIYAATNLADGVPDRFSGSGSGTDFTLTISNLQAEDVASYYCQHFWGTPYTFGGGTK
notes: 'Feline IgG1a subclass B was used'; The listing names the entries heavy chain and light chain; also called mAb6 ID No. 1; ZTS-310 WT
B14: mAb4 (felinized anti-IL31 antibody ZTS-5864) S428M and S434P, feline IgG1a, ID No. 35 (antibody)
heavy: B4 heavy with E433M, S439P
VL: B4 VL
notes: Same printed mutations as ID No. 50; also called mAb4 ID No. 35
B15: mAb4 (felinized anti-IL31 antibody ZTS-5864) S428Y and S434F, feline IgG1a (antibody)
heavy: B4 heavy with E433Y, S439F
VL: B4 VL
notes: also called mAb4 ID No. 28
B16: mAb4 (felinized anti-IL31 antibody ZTS-5864) S428M and S434L, feline IgG1a, ID No. 34 (antibody)
heavy: B4 heavy with E433M, S439L
VL: B4 VL
notes: Same printed mutations as ID No. 49; also called mAb4 ID No. 34
B17: mAb4 (felinized anti-IL31 antibody ZTS-5864) S428Y and S434H, feline IgG1a (antibody)
heavy: B4 heavy with E433Y, S439H
VL: B4 VL
notes: also called mAb4 ID No. 27
B18: mAb4 (felinized anti-IL31 antibody ZTS-5864) S428V, feline IgG1a (antibody)
heavy: B4 heavy with E433V
VL: B4 VL
notes: also called mAb4 ID No. 18
B19: mAb4 (felinized anti-IL31 antibody ZTS-5864) S428Y, feline IgG1a (antibody)
heavy: B4 heavy with E433Y
VL: B4 VL
notes: also called mAb4 ID No. 20
B20: mAb4 (felinized anti-IL31 antibody ZTS-5864) S428Y and S434P, feline IgG1a (antibody)
heavy: B4 heavy with E433Y, S439P
VL: B4 VL
notes: also called mAb4 ID No. 30
B21: mAb4 (felinized anti-IL31 antibody ZTS-5864) S428Y and S434L, feline IgG1a (antibody)
heavy: B4 heavy with E433Y, S439L
VL: B4 VL
notes: also called mAb4 ID No. 29

molecular target: Feline FcRn (complex of FcRn-α subunit and β-microglobulin, C-terminal His tag) (feline); test: SPR Biacore, biotin-FcRn on SA chip, pH 6
Sequence (chain, as listed by the source, chain 1 of 2): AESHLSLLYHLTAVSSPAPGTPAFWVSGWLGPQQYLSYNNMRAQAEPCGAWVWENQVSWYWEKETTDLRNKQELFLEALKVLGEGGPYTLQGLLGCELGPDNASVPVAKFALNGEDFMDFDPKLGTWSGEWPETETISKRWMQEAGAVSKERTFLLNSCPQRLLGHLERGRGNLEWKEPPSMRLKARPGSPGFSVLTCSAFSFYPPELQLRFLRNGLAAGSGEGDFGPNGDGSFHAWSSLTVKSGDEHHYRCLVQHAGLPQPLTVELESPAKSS
Sequence (Q5MGS7 21-118, chain 2 of 2): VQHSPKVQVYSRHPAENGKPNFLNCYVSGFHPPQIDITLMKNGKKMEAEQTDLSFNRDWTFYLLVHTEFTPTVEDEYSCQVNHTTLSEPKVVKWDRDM

In order of rising Kd:
1. B1  8.65 nM
2. B9  16.7 nM
3. B3  18.6 nM
4. B7  18.8 nM
5. B8  21.4 nM
6. B5  25.5 nM
7. B10  29.7 nM
8. B2  33.2 nM
9. B4  37.9 nM
10. B6  49 nM

molecular target: T1, Feline FcRn (complex of FcRn-α subunit and β-microglobulin, C-terminal His tag) (feline, UniProt A0ABI7ZNY9 23-296; Q5MGS7 21-118); test: SPR Biacore, FcRn on sensor, pH 6; pH 6
T1 construct: treated here as one molecule
Protocol: As discussed in the above Example section, Feline FcRn was isolated, prepared and mutant Fc IgGs were assayed against feline FcRn according to Strietzelg et. al. Standard RACE PCR was used to amplify feline FcRn-α subunit and β-microglobulin. FcRn-α subunit and β-microglobulin were co-transfected into HEK 293 cells and the FcRn complex was purified by IMAC affinity purification via the c-terminal His tag. KD's were measured by Biacore 3000 or Biacore T200 (GE Healthcare, Pittsburgh, PA, USA) using a CM5 sensor chip.
(§1) FcRn was captured on the surface of the sensor using a modified SA capture method. 10 mM MES; 150 mM NaCl; 0.005% Tween20; 0.5 mg/mL BSA; pH6 was used as capture, method running buffer and titrations. 1×HBS-P, 0.5 mg/mL BSA; pH7.4 was also used for method running buffer and titrations. Fc mutant IgGs were flowed over receptor surfaces and affinity was determined using T200 evaluation software or Biacore Insight Evaluation software. Blank runs containing buffer only were subtracted out from all runs. Flow cells were regenerated using 50 mM Tris pH8 or pH9. Runs were performed at 15° C.

In order of falling Kd:
1. B13  147 nM
2. B11  35.2 nM
3. B12  22.3 nM

molecular target: T1, Feline FcRn (complex of FcRn-α subunit …); test: SPR Biacore, biotin-FcRn on SA chip, pH 6
Protocol: Feline FcRn was isolated, prepared and mutant Fc IgGs were assayed against feline FcRn according to Strietzel et. al., discussed above. Standard PCR was used to amplify feline FcRn-α subunit and β-microglobulin. FcRn-α subunit and β-microglobulin were co-transfected into HEK 293 cells and the FcRn complex was purified by IMAC affinity purification via the c-terminal His tag. FcRn complex was biotin labeled through BirA enzymatic biotinylatoin reaction. KD's were measured by Biacore T200 (GE Healthcare, Pittsburgh, PA, USA) or Biacore 8K (Cytiva, Marlborough, MA, USA) using a SA sensor chip.
as §1

In order of rising Kd:
1. B17  18.8 nM
2. B15  18.9 nM
3. B16  28.3 nM
4. B20  40.6 nM
5. B14  42 nM
6. B21  44 nM
7. B19  63.4 nM
8. B18  63.9 nM
